Assay [1] addresses T1, Macaca Fascicularis GP130 extracellular domain expressed with a C-terminal myc-myc-hexahistidine tag (Macaca fascicularis, UniProt P40189 23-619 (human entry)).
T1 construct: also called mfGP130-MMH; mfGP130-mmH
T1 chain: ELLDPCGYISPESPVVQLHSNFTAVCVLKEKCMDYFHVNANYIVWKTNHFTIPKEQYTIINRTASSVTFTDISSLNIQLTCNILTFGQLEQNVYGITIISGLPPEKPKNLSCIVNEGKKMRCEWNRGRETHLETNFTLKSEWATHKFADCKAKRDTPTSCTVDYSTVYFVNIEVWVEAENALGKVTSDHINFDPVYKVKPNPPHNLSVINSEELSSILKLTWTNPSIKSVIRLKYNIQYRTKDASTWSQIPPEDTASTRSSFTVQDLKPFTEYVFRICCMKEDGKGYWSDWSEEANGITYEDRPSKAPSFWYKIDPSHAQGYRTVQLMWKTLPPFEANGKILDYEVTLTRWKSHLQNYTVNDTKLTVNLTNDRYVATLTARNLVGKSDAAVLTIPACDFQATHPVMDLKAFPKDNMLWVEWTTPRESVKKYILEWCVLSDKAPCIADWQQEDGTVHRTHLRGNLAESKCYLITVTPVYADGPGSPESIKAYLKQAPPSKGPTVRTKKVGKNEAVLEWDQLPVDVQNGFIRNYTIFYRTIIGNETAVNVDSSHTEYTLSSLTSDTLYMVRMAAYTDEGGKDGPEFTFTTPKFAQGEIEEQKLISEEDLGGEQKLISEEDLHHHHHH
Briefly: SPR, bsAb captured by anti-hFc, 37C. In short, it runs like this:
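Anti-hFc-captured bispecific antibodies received 3-fold serial dilutions of LEPR or GP130 (100 nM–3.7 nM) in HBS-ET, pH 7.4, injected for 4 min with 10 min dissociation at 25 °C or 37 °C. ka and kd came from a 1:1 binding model with mass transport limitation, and KD and t½ were calculated from these rate constants.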
(In general: Surface plasmon resonance follows binding to a sensor surface in real time, without labels.)

Assay [2] concerns the target T2, extracellular domain of human LEPR, GPI-anchored, on HEK293/hLEPR-GPI cells (human, UniProt P48357 22-839, GPI anchor at the C-terminus ; GPI anchor at the C-terminus, added through the carboxypeptidase M signal peptide. The N-terminal myc-myc tag is not written.).
T2 sequence: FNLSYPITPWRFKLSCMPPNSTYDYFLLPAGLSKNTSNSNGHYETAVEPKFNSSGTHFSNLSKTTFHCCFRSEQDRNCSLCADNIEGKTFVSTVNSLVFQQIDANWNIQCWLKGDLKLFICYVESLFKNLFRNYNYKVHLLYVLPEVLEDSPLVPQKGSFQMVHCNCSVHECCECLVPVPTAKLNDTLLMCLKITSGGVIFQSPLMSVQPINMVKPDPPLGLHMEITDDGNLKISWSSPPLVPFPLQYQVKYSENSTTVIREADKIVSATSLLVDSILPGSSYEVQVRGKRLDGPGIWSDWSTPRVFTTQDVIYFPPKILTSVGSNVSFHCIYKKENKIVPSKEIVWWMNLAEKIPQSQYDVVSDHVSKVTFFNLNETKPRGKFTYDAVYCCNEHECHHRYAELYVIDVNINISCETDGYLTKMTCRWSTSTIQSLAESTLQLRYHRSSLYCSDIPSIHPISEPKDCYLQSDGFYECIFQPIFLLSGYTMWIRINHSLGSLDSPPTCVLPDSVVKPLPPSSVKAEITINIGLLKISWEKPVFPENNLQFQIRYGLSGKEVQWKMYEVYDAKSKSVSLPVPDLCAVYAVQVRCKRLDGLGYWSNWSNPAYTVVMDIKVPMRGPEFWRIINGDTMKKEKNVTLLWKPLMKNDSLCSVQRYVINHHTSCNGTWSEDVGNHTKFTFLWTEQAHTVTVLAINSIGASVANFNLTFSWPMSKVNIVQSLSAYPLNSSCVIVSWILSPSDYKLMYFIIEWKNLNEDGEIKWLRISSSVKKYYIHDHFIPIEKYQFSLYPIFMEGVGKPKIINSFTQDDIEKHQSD
Briefly: FACS, 200 nM antibody on HEK293/hLEPR-GPI cells, no Leptin. As for the experimental part: (§1) For the FACS analysis, 0.5×10^6 cells/well of HEK293 parental cells, HEK293/Stat3-luc/gp130-2 X Sort cells, and HEK293/hLEPR-GPI cells, were incubated with 200 nM of the conventional antibodies against either GP130 or LEPR or with LEPRxGP130 bispecific antibodies, along with isotype control antibodies at 4° C. in PBS (without calcium and magnesium) containing 2% FBS.
(§2) Cells were fixed using BD CytoFix™ (Becton Dickinson, #554655) and analyzed on an IQue® (Intellicyt) Flow Cytometer. Unstained and secondary antibody alone controls were also tested for all cell lines. The results were analyzed using ForeCyt® (IntelliCyt) and FlowJo version 10 softwares to determine the geometric means of fluorescence for viable cells.

For assay [3], the target named is T2, extracellular domain of human LEPR, …. Briefly: FACS, 200 nM antibody on HEK293/hLEPR-GPI cells, 1 µM Leptin. The protocol:
as §1, §2

B1: bsAb21236D (bispecific antibody, V domains shown)
VH 1: QVQLQESGPGLVKPSQTLSLTCTVSGGSISSGGDYWSWIRQLPGKGLEWIGYIYYSGSAYYNPSLKSRGTISIDTSKNQFSLKLTSVTAADTAVYFCVKLRFLEWFLGGWFGPWGQGTLVTVSS
VH 2: QVQLVESGGGLVKPGGSLRLSCAASGFTFSDYYMTWIRQTPGKGLDWVSYISSSGTNKYNADSVKGRFTISRDNAKNSLYLQMNSLRAEDTAVYYCVRDPPWGMDVWGQGTTVTVSS
VL: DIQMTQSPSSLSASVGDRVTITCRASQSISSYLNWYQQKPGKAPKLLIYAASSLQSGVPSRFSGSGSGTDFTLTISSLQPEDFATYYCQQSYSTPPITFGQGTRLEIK
notes: LEPR x GP130 bispecific with common light chain; also called H4H21236D; bsAb21236 (LEPR × GP130)
B1: in assay [1], the “100 nM mfGP130-MMH Bound (RU)” value came out at 18 RU; binding was characterised by a dissociation constant (Kd) of 179 nM; the koff (in general, the rate constant with which the complex falls apart) turned out to be 0.0125 s⁻¹; the on-rate constant (kon) (as a rule, the second-order rate constant of association) is 69800 M⁻¹ s⁻¹. In assay [1], the t½ (in general, how long it takes for the measured level to halve) turned out to be 0.9 min. The “Binding Ratio, normalized to unstained sample (FL4-A)” value (“Binding Ratio, normalized” for short) in assay [2] came to 4420 fold. Also, the “Binding Ratio, normalized” value in assay [3] amounted to 3600 fold.

B2: bsAb21237D (bispecific antibody, V domains shown)
VH 1: EVQLVESGGGLVQPGGSLRLSCAASGFTFSNYGMTWVRQAPGKGLEWVSAITGGGGSTYYSNSVKGRFTISRDNSKNTVYLRMNSVRAEDTAVYYCAKYKWNFVDDWGQGTTVTVSS
VH 2: B1 VH 2
VL: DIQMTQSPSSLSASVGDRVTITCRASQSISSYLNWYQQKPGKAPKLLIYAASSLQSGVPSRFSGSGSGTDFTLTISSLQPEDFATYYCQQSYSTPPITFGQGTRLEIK
notes: LEPR x GP130 bispecific with common light chain; also called H4H21237D; bsAb21237 (LEPR × GP130)
For the molecule B2, in assay [1], the “100 nM mfGP130-MMH Bound (RU)” value was determined as 21 RU; the Kd – broadly, the concentration at which binding is half-saturated – was 215 nM; the koff is 0.00792 s⁻¹; the kon was found to be 36900 M⁻¹ s⁻¹. This molecule gave a t½ in assay [1] of 1.5 min. The “Binding Ratio, normalized” value in assay [2] turned out to be 6320 fold. For the same molecule, in assay [3], the “Binding Ratio, normalized” value is 5930 fold.
